{"source": "paper PMC5789952", "about": "(Proceedings of the National Academy of Sciences of the …, 2017)", "binders": {"B1": {"name": "ADAR ISRE 29 bp (dsDNA)", "DNA 1": "TAAGCCTTTTCAAGGAAACGAAAGTGAAC", "DNA 2": "AGTTCACTTTCGTTTCCTTGAAAAGGCTT"}, "B2": {"name": "STAT2_(133–315) (domain or fragment, mouse, UniProt Q9WVL2 133-315, looked up)", "chain": "PEAVVESQQLEIENRIQGLHVDIEFLVRSIRQLKDEQDVFSFRYTVFSLKKTSSSDPHQSQQAHVVQATANKVDRMRKEVLDISKGLVGRLTTLVDLLLPKLDEWKVQQQKSCIGAPPPVKSAAEQLEQWLTAGAKFLFHLRQLLKQLKEMSCLRYQGDMFAKGVDLRNAQVMELLQRLLQRS"}, "B3": {"name": "STAT1 (136–713) of the purified STAT1–STAT2 heterodimer (domain or fragment, mouse, UniProt P42225 136-713, looked up)", "chain": "LDKQKELDSKVRNVKDQVMCIEQEIKTLEELQDEYDFKCKTSQNREGEANGVAKSDQKQEQLLLHKMFLMLDNKRKEIIHKIRELLNSIELTQNTLINDELVEWKRRQQSACIGGPPNACLDQLQTWFTIVAETLQQIRQQLKKLEELEQKFTYEPDPITKNKQVLSDRTFLLFQQLIQSSFVVERQPCMPTHPQRPLVLKTGVQFTVKSRLLVKLQESNLLTKVKCHFDKDVNEKNTVKGFRKFNILGTHTKVMNMEESTNGSLAAELRHLQLKEQKNAGNRTNEGPLIVTEELHSLSFETQLCQPGLVIDLETTSLPVVVISNVSQLPSGWASILWYNMLVTEPRNLSFFLNPPCAWWSQLSEVLSWQFSSVTKRGLNADQLSMLGEKLLGPNAGPDGLIPWTRFCKENINDKNFSFWPWIDTILELIKNDLLCLWNDGCIMGFISKERERALLKDQQPGTFLLRFSESSREGAITFTWVERSQNGGEPDFHAVEPYTKKELSAVTFPDIIRNYKVMAAENIPENPLKYLYPNIDKDHAFGKYYSRPKEAPEPMELDDPKRTGYIKTELISVSEVH"}, "B4": {"name": "IRF9_(182–399) (domain or fragment, mouse, UniProt Q61179 182-399, looked up)", "chain": "SELEEGAGTTEATIREDPVFLEHQLPLNSDYSLLLTFIYGGRVVGKTQVHSLDCRLVAERSDSESSMEQVEFPKPDPLEPTQHLLNQLDRGVLVASNSRGLFVQRLCPIPISWNAPEAPPGPGPHLLPSNKCVELFKTTYFCRDLAQYFQGQGPPPKFQATLHFWEESPGSSHSQENLITVQMEQAFARHLLEKIPEEEKAALFLLQHTEQSPSALGH"}}, "key": {"IRF9-DBD": {"target": "T1, IRF9-DBD (Mus musculus, UniProt Q61179 1-116)", "T1 sequence": "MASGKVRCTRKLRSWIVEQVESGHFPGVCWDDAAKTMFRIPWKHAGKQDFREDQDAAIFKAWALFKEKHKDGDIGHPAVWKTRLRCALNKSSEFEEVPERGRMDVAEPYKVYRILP", "assay": "EMSA"}, "IRF9–IAD_(182–385)": {"target": "T2, IRF9–IAD_(182–385) (mouse, UniProt Q61179 182-385)", "T2 sequence (looked up)": "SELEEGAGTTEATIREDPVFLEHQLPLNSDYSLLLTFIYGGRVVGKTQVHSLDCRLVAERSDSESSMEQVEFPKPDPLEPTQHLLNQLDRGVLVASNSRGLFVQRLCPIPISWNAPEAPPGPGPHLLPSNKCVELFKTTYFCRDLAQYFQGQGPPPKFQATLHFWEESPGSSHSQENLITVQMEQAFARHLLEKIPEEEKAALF", "assay": "SEC"}, "[1]": {"target": "T3, STAT2 (133–748) of the purified STAT1–STAT2 heterodimer (mouse, UniProt Q9WVL2 133-748)", "T3 sequence (looked up)": "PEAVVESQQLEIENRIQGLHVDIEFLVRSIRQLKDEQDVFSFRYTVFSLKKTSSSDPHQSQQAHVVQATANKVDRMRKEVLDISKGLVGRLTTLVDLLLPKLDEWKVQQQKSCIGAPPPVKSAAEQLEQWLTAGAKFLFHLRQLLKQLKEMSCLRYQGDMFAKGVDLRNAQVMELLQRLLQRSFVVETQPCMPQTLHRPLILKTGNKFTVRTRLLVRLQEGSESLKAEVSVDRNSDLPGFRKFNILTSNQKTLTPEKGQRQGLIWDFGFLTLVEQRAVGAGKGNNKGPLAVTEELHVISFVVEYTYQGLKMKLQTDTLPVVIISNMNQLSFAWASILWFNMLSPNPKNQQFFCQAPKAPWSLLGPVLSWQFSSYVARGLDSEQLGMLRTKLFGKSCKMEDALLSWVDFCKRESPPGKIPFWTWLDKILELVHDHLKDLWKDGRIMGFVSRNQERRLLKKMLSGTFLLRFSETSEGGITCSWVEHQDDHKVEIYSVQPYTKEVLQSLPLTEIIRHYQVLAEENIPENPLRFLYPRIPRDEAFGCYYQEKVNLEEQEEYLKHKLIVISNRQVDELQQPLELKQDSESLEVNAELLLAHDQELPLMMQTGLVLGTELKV", "assay": "tandem affinity co-purification"}, "STAT2_(133–679)": {"target": "T4, STAT2_(133–679) (mouse, UniProt Q9WVL2 133-679)", "T4 sequence (looked up)": "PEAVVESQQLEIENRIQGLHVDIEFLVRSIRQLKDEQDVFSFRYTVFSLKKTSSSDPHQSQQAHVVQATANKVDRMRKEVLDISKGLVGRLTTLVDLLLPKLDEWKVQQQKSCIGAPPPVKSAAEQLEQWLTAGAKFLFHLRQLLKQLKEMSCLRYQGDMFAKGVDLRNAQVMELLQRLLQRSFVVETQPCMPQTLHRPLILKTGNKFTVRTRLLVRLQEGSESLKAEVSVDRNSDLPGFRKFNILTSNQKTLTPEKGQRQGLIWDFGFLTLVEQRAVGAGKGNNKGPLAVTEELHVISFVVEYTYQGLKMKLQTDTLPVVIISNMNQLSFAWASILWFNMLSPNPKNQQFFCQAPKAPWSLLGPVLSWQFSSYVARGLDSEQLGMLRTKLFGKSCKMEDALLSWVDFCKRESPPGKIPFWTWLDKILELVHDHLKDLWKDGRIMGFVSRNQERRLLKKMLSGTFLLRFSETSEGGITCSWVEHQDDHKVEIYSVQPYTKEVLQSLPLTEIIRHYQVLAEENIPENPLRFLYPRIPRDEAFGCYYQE", "assay": "SEC-MALS"}}, "data": [{"binder": "B1", "values": [{"measurement": "binding result", "setting": "IRF9-DBD", "result": "binds"}]}, {"binder": "B2", "values": [{"measurement": "binding result", "setting": "IRF9–IAD_(182–385)", "result": "binds"}]}, {"binder": "B3", "values": [{"measurement": "binding result", "setting": "[1]", "result": "binds"}]}, {"binder": "B4", "values": [{"measurement": "stoichiometry N", "setting": "STAT2_(133–679)", "result": 1}]}]}
